Laboratory results as given in US20090081195.

Tested on: SLK (construct not stated)
Sequence (chain, as listed by the source): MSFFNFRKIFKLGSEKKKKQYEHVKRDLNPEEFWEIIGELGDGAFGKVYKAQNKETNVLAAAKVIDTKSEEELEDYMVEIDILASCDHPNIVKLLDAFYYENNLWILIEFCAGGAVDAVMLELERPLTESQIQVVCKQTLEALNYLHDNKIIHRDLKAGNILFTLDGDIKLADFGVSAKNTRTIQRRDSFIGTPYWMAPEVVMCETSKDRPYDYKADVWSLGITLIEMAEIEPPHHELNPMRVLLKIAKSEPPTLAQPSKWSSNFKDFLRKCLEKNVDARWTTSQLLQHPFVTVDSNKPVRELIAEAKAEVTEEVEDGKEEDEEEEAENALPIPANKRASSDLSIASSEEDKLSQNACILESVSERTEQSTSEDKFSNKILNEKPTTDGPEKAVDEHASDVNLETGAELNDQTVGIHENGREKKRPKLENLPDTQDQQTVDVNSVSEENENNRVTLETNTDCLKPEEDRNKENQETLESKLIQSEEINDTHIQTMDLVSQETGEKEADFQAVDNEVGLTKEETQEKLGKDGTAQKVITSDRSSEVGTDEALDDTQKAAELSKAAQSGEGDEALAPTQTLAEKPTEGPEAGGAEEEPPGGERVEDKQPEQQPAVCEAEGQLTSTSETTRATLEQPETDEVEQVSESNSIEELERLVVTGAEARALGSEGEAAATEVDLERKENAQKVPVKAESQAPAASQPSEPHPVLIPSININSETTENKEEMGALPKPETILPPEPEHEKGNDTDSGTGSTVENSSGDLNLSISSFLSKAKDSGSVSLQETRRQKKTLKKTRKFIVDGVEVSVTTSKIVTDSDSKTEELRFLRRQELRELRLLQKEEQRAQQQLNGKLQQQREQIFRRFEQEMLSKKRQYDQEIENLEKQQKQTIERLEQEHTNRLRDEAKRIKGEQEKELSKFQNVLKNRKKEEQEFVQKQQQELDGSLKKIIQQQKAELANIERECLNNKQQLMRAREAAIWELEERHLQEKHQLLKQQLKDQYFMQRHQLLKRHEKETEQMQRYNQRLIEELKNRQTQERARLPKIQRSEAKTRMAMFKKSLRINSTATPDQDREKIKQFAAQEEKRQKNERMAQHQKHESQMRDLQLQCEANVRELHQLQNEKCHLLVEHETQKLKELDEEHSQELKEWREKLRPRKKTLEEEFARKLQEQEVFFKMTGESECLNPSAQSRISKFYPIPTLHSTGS

nm23 (nucleoside diphosphate kinase; NDPK)
SLK activity in vitro (kinase assay, autophosphorylation): nm23 is not a substrate for SLK but rather inhibits its activity in vitro through direct interaction
